Source: the nanobody polyreactivity screen of Harvey et al. (2022)

Assay: yeast display, Sf9 membrane polyspecificity reagent, FACS + sequencing; frameworks hold sequencing errors
Method in brief: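 Galactose induction of a Saccharomyces cerevisiae BJ5465 synthetic nanobody display library ran 36–48 hours. The cells were then stained for 1 hour at 4 °C with 10% biotinylated, detergent-solubilized Sf9 membrane reagent, pulled down on streptavidin microbeads and FACS-sorted into low and high (top ~1%) gates on expression and reagent-binding fluorescence. Labels for polyreactivity follow the gate of origin.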

Sequence	polyreactivity (PSR sort gate)
QVQLVESGGGIVQAGGSLRLSCAASGNILFSYAMGWYRQAPGKERELVAAISRSGGSTYYADSVKGRFTISRDNAKNTVYLQMNSLKPEDTAVYYCNAGVYYSYSVTEDYWGQGTQVTVSS	high polyreactivity
QVQLVESGGGIVQAGGSLRLSCAASGNTFYAYTMGWYRPAPGKERELVAAISSDGSTNYAVSVKGSVTISRDHAKNTVYLQLNCLKPEDTAVYYCAKYTSSRFEYDYWGHGTQVTVSS	low polyreactivity
QVQLVESGGGIVQAGGSLRLSCAASGNTFYPYTMGWYRQAPGKERELVADITYIGGDTYYADSVKGRFTISRDNAKNTVYLQMHTLKPEDTAVYYCNAVEVDHDYFYYGQNEYWGQGTQVTVSS	low polyreactivity
QVQLVESGGGIVQAGGSLRLSCAASGPNFTDNAMGWYRQAPGKERELVAAITGPGGSTYYAHSVKGRFTISRDNAKTTVYLQMNSLKREDTAVFYCAADYYYPYYWGQGTQVTVSS	low polyreactivity
QVQLVESGGGIVQAGGSLRLSCAASGRIFPHNAMGWDRQAPGKERELVAAITKSGDDTYYADSVKGRFTISRDNAKNTVYLQMNSLKPEDTAVYYCAAYLSWYDYWGQGTQVTVSS	low polyreactivity
QVQLVESGGGIVQAGGSLRLSCAASGRIFVGYAMGWYRQAPGKEREFVAAITFRGGTTYYADSVKGSFTISRDNAKNTVYLQMNSLKPEDTAVYYCAVPHYLYSVEYGYWGQGTQVTVSS	low polyreactivity
QVQLVESGGGIVQAGGSLRLSCAASGRIFVYNTMGWYRQAPGKEREFVAALSWRGGRTYYADSVKGRFTISRDNAKNTVYLQKNSLKPEDTAVYYCGADLKYYGYDYWGQGTHVTVSS	high polyreactivity
QVQLVESGGGIVQAGGSLRLSCAASGRIFYFNAMGWYSQAPGKERELVAAISGSGGDTYYADSVKGRFTISRDNAKNTVYLQMNSLKPEDTAVYFCAKEYIFRLWGQGTQVTVSS	low polyreactivity
QVQLVESGGGIVQAGGSLRLSCAASGRIFYINAMGWYRQAPGKERELVAAISTSGGCTYYADSVKGRFTISRDNAKKTVYLQMNSLKPEVTAVYYCAAALRYGYYGREYYYWGQGTKVTVSS	high polyreactivity
QVQLVESGGGIVQAGGSLRLSCAASGRNFSRYAMGWYRQAPGKERELVAVISRSGADTYYADSVKGRFTISRDNAKNTVYLQMNSLKPEDTAVYYCNAYSARRPHPMGYDYWGEGTQVTVSS	high polyreactivity
QVQLVESGGGIVQAGGSLRLSCAASGRTFTYNAMGRYRQAPGKERELVAAITYRGGSTYYADSVKGRFTISRDNAKNTVYLQMNSLKPEDTAVYYCAARVSYYRYNTPHYYYWGQGTQVTVSS	high polyreactivity
QVQLVESGGGIVQAGGSLRLSCAASGRTFYYYAMGWYRQAPGKERELVASISWSGGSTYYADSVKGRFTISRDNAKNTVYLQMNSLKPEDTAVYYCNAQYHTYRWLYAVYLSGDYWGQGTQVTVSS	low polyreactivity
QVQLVESGGGIVQAGGSLRLSCAASGRTIYFNAMGWYRQAPGKERELVATISRSTGSTYYADSVKGRFTISRDNAKNTVYLQMNSLKPEYTAVYYCNATPWGYARMDYWGQGTQVTVSS	low polyreactivity
QVQLVESGGGIVQAGGSLRLSCAASGSIFDYYTKAWYRQAPGKEREMVAAISWSGGSTYYADSVKGRFTISRDNAKNTVYLQMYSLKPEDTAVYYCATRVRTRTGYQYYYWGQGTQVTVSS	high polyreactivity
QVQLVESGGGIVQAGGSLRLSCAASGSIFLYYAMGWYRQAPGNERQLVATINWSGGTTYYADSVKGRFTISRDNAKNTVYLQMNSLKPEDTAVYYCNKAKTAYRGQYDYWGQGTQVTVSS	high polyreactivity
QVQLVESGGGIVQAGGSLRLSCAASGSIFNIYAMGWYRQAPGKERELVAAIRWTGGSTYYADSVKGRFTISRDNAKNTVYLQMNILIPEDTAVYYCAADPWYPRGYYWGQGTQVTVSS	high polyreactivity
QVQLVESGGGIVQAGGSLRLSCAASGSIFRWNAMGWYRQAPGKESELVAAIRWSSGSTYYADSVKGRFTISRDNAKNTVYLQMNSLKPEDTAVYYCAASRATIKYPKREYWGQGTQVTVSS	high polyreactivity
QVQLVESGGGIVQAGGSLRLSCAASGSIFSFNAMGWYRQAPGKERELVAAISRGGSTYYADSVKGRFTISRDNAKNTVYLQMNSLKPEDTAVYYCAADIYGHSYSYYLGEYWGQGTQVTVSS	high polyreactivity
QVQLVESGGGIVQAGGSLRLSCAASGSIFSFYAMGWYRQAPGKERELVAAIDVSGGSTYYADSVKGRFTISRDNAKNSVYLQMNSLKPEDTAVYYCAKDVRDQYDYWGQGTQVTVSS	low polyreactivity
QVQLVESGGGIVQAGGSLRLSCAASGSIFSTNAMGWYRQAPWKERELVAAIDITNYADSVKGRFTISRDNAKNTVYLQMNSLKPEDTAVYYCNADTYSVVREGDYWGQGTQVTVSS	low polyreactivity
QVQLVESGGGIVQAGGSLRLSCAASGSIFTHYAMGWDRQAPGKERELVATISSTGSTDYADSVKGRFTISRDNAKNTVFLQINSLKPEDTAVYYCAAVSFYKTRATYYFWYDYWGQGTQVTVSS	low polyreactivity
QVQLVESGGGIVQAGGSLRLSCAASGSIFYAYAMGWYRQAPGKERELVASISRGVNTNYADSVKGRFTISRDNAKNTVYLQMNSLKPEDTAVYYCNARLRYGHGYGYWGQGTQVTVSS	low polyreactivity
QVQLVESGGGIVQAGGSLRLSCAASGSTFDYYAMGWYRQAPGKEMELVAGISASGGSTYYADSVKGRFTISRDNAKNTVYLQMNSLKPEDTAVYYWASYYKPPGYDYWGQGTQVTVSS	low polyreactivity
QVQLVESGGGIVQAGGSLRLSCAASGSTFEHNAMGWYRQAPGKEREFVAAITGSGGSTYYADSVKGRFTISRDNAKNTVYLQMTSLKPEDTAVYYCAADIQDGWYWWDIYDYWGQGTQVTVSS	low polyreactivity
QVQLVESGGGIVQAGGSLRLSCAASGSTFGVYAMGWYRQAPGKERDLVSVIRRGGGTDYADSVKGRFTISRDNAKNTVYLQMNSLNPEVTAVYYCAATVVRSGYLTLEMDYWGQGTQVTVSS	low polyreactivity
QVQLVESGGGIVQAGGSLRLSCAASGSTFLYYAMGWSRQAPGKEREFVAAISISGGSTYYADSVKGRFTISRDNAKNTVYLQMNSLKPEDTAVYYCAAEVGIVDYDYWGQGTQVTVSS	low polyreactivity
QVQLVESGGGIVQAGGSLRLSCAASGSTFNYNAMGWYRQAPGKERELVAAITRSGDSTYADSVKGRFTISRDNAKNTFYLQMNSLKPEYTAVYYCAKRYTHYSFRRFDYWGQGSQVTVSS	low polyreactivity
QVQLVESGGGIVQAGGSLRLSCAASGSTFTLYAMGWYRQAPGQERELVAAITSDDSTYYADSVKGRFTISRDNAKNTVYLQMNSLKPEDTAVYYCAADVYYGDYEMDYWGQGTQVTVSS	low polyreactivity
QVQLVESGGGIVQAGGSLRLSCAASGSTFYVNTMGWYRQAPGKERDLVAAISYTGGNTYYADSVKGRFTISRDNAKNTVYLQMNSLKPEDTAVYYCAARILYRGTGYPYRMNYWGQGTQVTVSS	high polyreactivity
QVQLVESGGGIVQAGGSLRLSCAASGSTFYVNVMGRYRQAPGKERELVAGITIRDGATYYADSVKGRFTISRDNAKITVYLQMNSLNPEDTAVYYCARAGDGEYKRDYWGQGTQVTVSS	low polyreactivity
